According to patent US12139520B2 (priority 2020, dated 2024):
Numbered stars: 1 amine (or outer) side, 2 acyl side, 3 side chain; on linkers, the order of the positions; unused ones are H or OH. Bridge positions count the residues as written; N and C are the ends. Square brackets hold non-standard residues; d marks the D form. Side chains are listed from the residue outwards. Ends that are not written are not given here. * marks the point of attachment. C20 diacid = O=C(O)CCCCCCCCCCCCCCCCCCC(=O)*; γGlu = O=C(O)[C@H](CCC(=O)[*:2])N[*:1]; Hyp = O=C(O)[C@@H]1C[C@@H](O)CN1; AEEA = NCCOCCOCC(=O)O

T1: hAMY3R (human, UniProt P30988)
T1 sequence 1: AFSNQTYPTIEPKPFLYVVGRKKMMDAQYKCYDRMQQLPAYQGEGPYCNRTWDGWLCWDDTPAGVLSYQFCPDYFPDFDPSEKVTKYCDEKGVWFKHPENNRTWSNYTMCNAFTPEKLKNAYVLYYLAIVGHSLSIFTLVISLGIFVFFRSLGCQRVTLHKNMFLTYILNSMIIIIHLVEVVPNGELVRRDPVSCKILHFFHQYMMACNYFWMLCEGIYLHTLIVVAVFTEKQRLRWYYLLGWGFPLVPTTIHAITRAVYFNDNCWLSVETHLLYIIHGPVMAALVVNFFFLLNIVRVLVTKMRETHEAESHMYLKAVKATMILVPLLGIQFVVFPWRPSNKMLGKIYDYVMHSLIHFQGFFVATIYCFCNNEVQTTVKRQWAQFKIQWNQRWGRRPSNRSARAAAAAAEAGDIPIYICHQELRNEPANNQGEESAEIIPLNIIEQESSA
T1 sequence 2: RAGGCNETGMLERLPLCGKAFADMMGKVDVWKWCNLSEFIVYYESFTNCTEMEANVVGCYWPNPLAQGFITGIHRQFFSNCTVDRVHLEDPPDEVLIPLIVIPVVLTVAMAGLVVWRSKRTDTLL


Biological target: T1, hAMY3R
Assay: cell-based or functional assay

Row | hAMY3R EC50 (cAMP) [nM] | Binder
1 | 0.038 | GCRTGTCTVQRLAHQIYQFTDKDKDNVAPRTKVGPQG[Hyp]-NH2 (disulfide 2-7 (inferred); ends not checked) [SEQ ID NO: 143]
2 | 0.03 | {C20 diacid-γGlu}-KCNTATCTVDRLAHQIAQFTDKDKDPVAPPTNVGSNG[Hyp]-NH2 (disulfide 2-7 (inferred); ends not checked) [SEQ ID NO: 130]
3 | 0.034 | {C20 diacid-γGlu}-KCNTATCTVARLAHQINQFTDKDKDPVAPPTNVGSNG[Hyp]-NH2 (disulfide 2-7 (inferred); ends not checked) [SEQ ID NO: 137]
4 | 0.01 | KCNTATCATQRLANFLVHSSNNFGAILSSTNVGSNTY (ligand, disulfide 2-7) [hAMY1-37]
5 | 0.007 | KCNTSTCTVARLADQITQFSDKDKANVSPPTEVGPNS[Hyp]-NH2 (disulfide 2-7 (inferred); ends not checked) [SEQ ID NO: 15]
6 | 0.032 | GCRFGTCTVQRLAHQIYQFTDKDKDNVAPRTKVSPNG[Hyp]-NH2 (disulfide 2-7 (inferred); ends not checked) [SEQ ID NO: 134]
7 | 0.029 | GCRTGTCTVQRLAHQIYQFTDKDKDNVAPRSKVGPQGY [SEQ ID NO: 129]
8 | 0.031 | GCRFGTCTVQRLAHQIYQFTDKDKDNVAPRSNVSPQGY [SEQ ID NO: 131]
9 | 0.035 | GCRTGTCTVQRLAHQIYQFTDKDKDNVAPRSNVGPQGY [SEQ ID NO: 138]
10 | 0.036 | GCRTGTCTVQRLAHQIYQFTDKDKDNVAPRTNIGPNGY [SEQ ID NO: 142]
11 | 0.04 | GCRIGTCTVQRLAHQIYQFTDKFKDNVAPRSKISPQT[Hyp]-NH2 (disulfide 2-7 (inferred); ends not checked) [SEQ ID NO: 147]
12 | 0.036 | GCRFGTCTVQRLAHQIYQFTDKDKDNVAPRTNISPQG[Hyp]-NH2 (disulfide 2-7 (inferred); ends not checked) [SEQ ID NO: 141]
13 | 0.041 | GCRFGTCTVQRLAHQIYQFTDKDKDNVAPRSKVGPQG[Hyp]-NH2 (disulfide 2-7 (inferred); ends not checked) [SEQ ID NO: 152]
14 | 0.033 | KCNTATCTVQRLAEQIK([AEEA-AEEA-γGlu-C20 diacid])QFTDKDKDNVAPPTNVGSNG[Hyp]-NH2 (disulfide 2-7 (inferred); ends not checked) [SEQ ID NO: 136]
15 | 0.035 | GCRTGTCTVQRLAHQIYQFTDKDKDNVAPRSKVGPNG[Hyp]-NH2 (disulfide 2-7 (inferred); ends not checked) [SEQ ID NO: 139]
16 | 0.038 | {C20 diacid-γGlu}-KCNTATCTVQRLAEQIAQFTDKDKDPVAPPTNVGSNG[Hyp]-NH2 (disulfide 2-7 (inferred); ends not checked) [SEQ ID NO: 144]
17 | 0.033 | GCRFGTCTVQRLAHQIYQFTDKDKDNVAPRSNVGPQG[Hyp]-NH2 (disulfide 2-7 (inferred); ends not checked) [SEQ ID NO: 135]
18 | 0.04 | GCRFGTCTVQRLAHQIYQFTDKDKDNVAPRTKISPQG[Hyp]-NH2 (disulfide 2-7 (inferred); ends not checked) [SEQ ID NO: 146]
19 | 0.041 | GCRTGTCTVQRLAHQIYQFTDKDKDNVAPRSNIGPNG[Hyp]-NH2 (disulfide 2-7 (inferred); ends not checked) [SEQ ID NO: 151]
20 | 0.007 | KCNTATCTVQRLAHQIAQFTDKDKDNVAPPTNVGSNG[Hyp]-NH2 (disulfide 2-7 (inferred); ends not checked) [SEQ ID NO: 14]
21 | 0.028 | KCNTATCATQRLANFLVHSSNNFGAIAPSTKIGPNGY [SEQ ID NO: 128]
22 | 0.04 | KCNTATCATQRLANFLVHSSNNFGAILPSTKVGPNGY [SEQ ID NO: 149]
23 | 0.04 | KCNTATCATQRLANFLVHSSNNFGAILSSTKIGSNGY [SEQ ID NO: 148]
24 | 0.031 | {C20 diacid-γGlu}-KCNTATCTVARLAEQIYQFTDKDKDPVAPPTNVGSNG[Hyp]-NH2 (disulfide 2-7 (inferred); ends not checked) [SEQ ID NO: 133]
25 | 0.036 | GCRFGTCTVQRLAHQIYQFTDKDKDNVAPRTNISPQGY [SEQ ID NO: 140]
26 | 0.039 | GCRFGTCTVQRLAHQIYQFTDKDKDNVAPRSNVSPQG[Hyp]-NH2 (disulfide 2-7 (inferred); ends not checked) [SEQ ID NO: 145]
27 | 0.031 | GCRFGTCTVQRLAHQIYQFTDKDKDNVAPRTKVSPQG[Hyp]-NH2 (disulfide 2-7 (inferred); ends not checked) [SEQ ID NO: 132]
28 | 0.04 | GCRWGTCTVQRLAHQIYQFTDKDKDNVAPRSKISPQT[Hyp]-NH2 (disulfide 2-7 (inferred); ends not checked) [SEQ ID NO: 150]

Biological target: hAM1R (human, UniProt Q16602)
Assay: cell-based or functional assay

Row | hAM1R EC50 (cAMP) [nM] | Binder
29 | 2980 | GCRTGTCTVQRLAHQIYQFTDKDKDNVAPRTKVGPQG[Hyp]-NH2 (disulfide 2-7 (inferred); ends not checked) [SEQ ID NO: 143]
30 | > 5000 | {C20 diacid-γGlu}-KCNTATCTVDRLAHQIAQFTDKDKDPVAPPTNVGSNG[Hyp]-NH2 (disulfide 2-7 (inferred); ends not checked) [SEQ ID NO: 130]
31 | > 5000 | {C20 diacid-γGlu}-KCNTATCTVARLAHQINQFTDKDKDPVAPPTNVGSNG[Hyp]-NH2 (disulfide 2-7 (inferred); ends not checked) [SEQ ID NO: 137]
32 | > 5000 | KCNTATCATQRLANFLVHSSNNFGAILSSTNVGSNTY (ligand, disulfide 2-7) [hAMY1-37]
33 | > 5000 | KCNTSTCTVARLADQITQFSDKDKANVSPPTEVGPNS[Hyp]-NH2 (disulfide 2-7 (inferred); ends not checked) [SEQ ID NO: 15]
34 | 2980 | GCRFGTCTVQRLAHQIYQFTDKDKDNVAPRTKVSPNG[Hyp]-NH2 (disulfide 2-7 (inferred); ends not checked) [SEQ ID NO: 134]
35 | 367 | GCRTGTCTVQRLAHQIYQFTDKDKDNVAPRSKVGPQGY [SEQ ID NO: 129]
36 | 33.8 | GCRFGTCTVQRLAHQIYQFTDKDKDNVAPRSNVSPQGY [SEQ ID NO: 131]
37 | 2980 | GCRTGTCTVQRLAHQIYQFTDKDKDNVAPRSNVGPQGY [SEQ ID NO: 138]
38 | 2980 | GCRTGTCTVQRLAHQIYQFTDKDKDNVAPRTNIGPNGY [SEQ ID NO: 142]
39 | 3110 | GCRIGTCTVQRLAHQIYQFTDKFKDNVAPRSKISPQT[Hyp]-NH2 (disulfide 2-7 (inferred); ends not checked) [SEQ ID NO: 147]
40 | 258 | GCRFGTCTVQRLAHQIYQFTDKDKDNVAPRTNISPQG[Hyp]-NH2 (disulfide 2-7 (inferred); ends not checked) [SEQ ID NO: 141]
41 | 213 | GCRFGTCTVQRLAHQIYQFTDKDKDNVAPRSKVGPQG[Hyp]-NH2 (disulfide 2-7 (inferred); ends not checked) [SEQ ID NO: 152]
42 | > 5000 | KCNTATCTVQRLAEQIK([AEEA-AEEA-γGlu-C20 diacid])QFTDKDKDNVAPPTNVGSNG[Hyp]-NH2 (disulfide 2-7 (inferred); ends not checked) [SEQ ID NO: 136]
43 | 2980 | GCRTGTCTVQRLAHQIYQFTDKDKDNVAPRSKVGPNG[Hyp]-NH2 (disulfide 2-7 (inferred); ends not checked) [SEQ ID NO: 139]
44 | > 5000 | {C20 diacid-γGlu}-KCNTATCTVQRLAEQIAQFTDKDKDPVAPPTNVGSNG[Hyp]-NH2 (disulfide 2-7 (inferred); ends not checked) [SEQ ID NO: 144]
45 | 68.4 | GCRFGTCTVQRLAHQIYQFTDKDKDNVAPRSNVGPQG[Hyp]-NH2 (disulfide 2-7 (inferred); ends not checked) [SEQ ID NO: 135]
46 | 2980 | GCRFGTCTVQRLAHQIYQFTDKDKDNVAPRTKISPQG[Hyp]-NH2 (disulfide 2-7 (inferred); ends not checked) [SEQ ID NO: 146]
47 | 44.9 | GCRTGTCTVQRLAHQIYQFTDKDKDNVAPRSNIGPNG[Hyp]-NH2 (disulfide 2-7 (inferred); ends not checked) [SEQ ID NO: 151]
48 | > 5000 | KCNTATCTVQRLAHQIAQFTDKDKDNVAPPTNVGSNG[Hyp]-NH2 (disulfide 2-7 (inferred); ends not checked) [SEQ ID NO: 14]
49 | 130 | KCNTATCATQRLANFLVHSSNNFGAIAPSTKIGPNGY [SEQ ID NO: 128]
50 | > 5000 | KCNTATCATQRLANFLVHSSNNFGAILPSTKVGPNGY [SEQ ID NO: 149]
51 | > 5000 | KCNTATCATQRLANFLVHSSNNFGAILSSTKIGSNGY [SEQ ID NO: 148]
52 | > 5000 | {C20 diacid-γGlu}-KCNTATCTVARLAEQIYQFTDKDKDPVAPPTNVGSNG[Hyp]-NH2 (disulfide 2-7 (inferred); ends not checked) [SEQ ID NO: 133]
53 | 31.4 | GCRFGTCTVQRLAHQIYQFTDKDKDNVAPRTNISPQGY [SEQ ID NO: 140]
54 | 2980 | GCRFGTCTVQRLAHQIYQFTDKDKDNVAPRSNVSPQG[Hyp]-NH2 (disulfide 2-7 (inferred); ends not checked) [SEQ ID NO: 145]
55 | 2980 | GCRFGTCTVQRLAHQIYQFTDKDKDNVAPRTKVSPQG[Hyp]-NH2 (disulfide 2-7 (inferred); ends not checked) [SEQ ID NO: 132]
56 | > 5000 | GCRWGTCTVQRLAHQIYQFTDKDKDNVAPRSKISPQT[Hyp]-NH2 (disulfide 2-7 (inferred); ends not checked) [SEQ ID NO: 150]
